In IntAct's records for PubMed 20711168:

B1: Dynamin-2 (Rattus norvegicus (Rat)), P39052 (parent)
chain: MGNRGMEELIPLVNKLQDAFSSIGQSCHLDLPQIAVVGGQSAGKSSVLENFVGRDFLPRGSGIVTRRPLILQLIFSKTEYAEFLHCKSKKFTDFDEVRQEIEAETDRVTGTNKGISPVPINLRVYSPHVLNLTLIDLPGITKVPVGDQPPDIEYQIKDMILQFISRESSLILAVTPANMDLANSDALKLAKEVDPQGLRTIGVITKLDLMDEGTDARDVLENKLLPLRRGYIGVVNRSQKDIEGRKDIRAALAAERKFFLSHPAYRHMADRMGTPHLQKTLNQQLTNHIRESLPTLRSKLQSQLLSLEKEVEEYKNFRPDDPTRKTKALLQMVQQFGVDFEKRIEGSGDQVDTLELSGGARINRIFHERFPFELVKMEFDEKDLRREISYAIKNIHGVRTGLFTPDLAFEAIVKKQVVKLKEPCLKCVDLVIQELISTVRQCTSKLSSYPRLREETERIVTTYIREREGRTKDQILLLIDIEQSYINTNHEDFIGFANAQQRSTQLNKKRAIPNQGEILVIRRGWLTINNISLMKGGSKEYWFVLTAESLSWYKDEEEKEKKYMLPLDNLKIRDVEKGFMSNKHVFAIFNTEQRNVYKDLRQIELACDSQEDVDSWKASFLRAGVYPEKDQAENEDGAQENTFSMDPQLERQVETIRNLVDSYVAIINKSIRDLMPKTIMHLMINNTKAFIHHELLAYLYSSADQSSLMEESAEQAQRRDDMLRMYHALKEALNIIGDISTSTVSTPVPPPVDDTWLQNTSSHSPTPQRRPVSSVHPPGRPPAVRGPTPGPPLIPMPVGATSSFSAPPIPSRPGPQNVFANNDPFSAPPQIPSRPARIPPGIPPGVPSRRAPAAPSRPTIIRPAEPSLLD

Variants of: B1
Settings: with sh3k1_human SH3KBP1, Q96B97
Chain of sh3k1_human SH3KBP1, Q96B97 (Q96B97 whole entry): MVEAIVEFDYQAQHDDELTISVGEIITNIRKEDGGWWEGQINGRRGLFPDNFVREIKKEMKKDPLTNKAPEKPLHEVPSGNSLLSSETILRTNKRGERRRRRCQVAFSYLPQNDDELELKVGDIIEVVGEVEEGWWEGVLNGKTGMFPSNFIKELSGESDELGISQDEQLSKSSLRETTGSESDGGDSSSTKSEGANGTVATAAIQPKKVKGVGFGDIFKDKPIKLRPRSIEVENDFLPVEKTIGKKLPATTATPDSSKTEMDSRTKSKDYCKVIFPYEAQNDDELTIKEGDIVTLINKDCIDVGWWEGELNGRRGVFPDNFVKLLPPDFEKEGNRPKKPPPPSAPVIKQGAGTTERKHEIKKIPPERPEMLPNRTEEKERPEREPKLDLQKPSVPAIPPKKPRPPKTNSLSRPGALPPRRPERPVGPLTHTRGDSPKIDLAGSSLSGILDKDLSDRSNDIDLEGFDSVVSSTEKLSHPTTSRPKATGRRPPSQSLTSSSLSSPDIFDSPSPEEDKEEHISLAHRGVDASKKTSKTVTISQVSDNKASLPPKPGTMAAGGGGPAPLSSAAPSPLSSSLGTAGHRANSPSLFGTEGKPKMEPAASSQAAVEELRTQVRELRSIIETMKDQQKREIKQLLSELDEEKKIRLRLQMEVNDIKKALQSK

For P765A, which “effect of a mutation on the interaction” value is on record?
The value was “disrupting interaction”.

Which “effect of a mutation on the interaction” value does the source give for P767A here?
The value was “disrupting interaction”.
